Assay [1] concerns the target RSV F protein of subtype B strain 18537, on virus (respiratory syncytial virus subtype B …, UniProt P13843 26-574). As to the kind of experiment: cell-based or functional assay.
Assay [2] concerns the target RSV F protein of subtype A strain A2, on virus (respiratory syncytial virus subtype A …, UniProt P03420 26-574). As to the kind of experiment: cell-based or functional assay.

Positions count from the first letter of the chain named.

B1: ADI-15636 (antibody, V domains shown)
VH: EVQLVESGAEVKKPGSSVKVSCKASADTFSSYAISWVRQAPGQGLEWMGGILPILGTANSAQKFRGRVTFTADESTTTAYMELSSLRSEDTAVYYCARLAGPRWPGYGMDVWGQGTLVTVSS
VL: DIQLTQSPSFLSASVGDRVTITCRASQGISSYLAWYQQKPGKAPKLLIYAASTLQSGVPSRFSGSGSGTEFTLTISSLQPEDFATYYCQQLNSFPLTFGGGTKVEIK
For B1, the “Neut IC50 (ug/ml) subtype B” value in assay [1] was 6.44 µg/mL. Besides, the “Neut IC50 (ug/ml) subtype A” value in assay [2] is over 10 µg/mL.

B2: ADI-15572 (antibody, V domains shown)
VH: QVQLVQSGAEAKKPGASVKVSCKASGYTFTSYYLHWVRQAPGQGPEWMGIINPGGGSTELSQKFQGRVTLTRDTSTSTVYMEVTSLTSEDTAVYYCARARIQLWAPNYYGMDVWGQGTTVTVSS
VL: B1 VL with Q27H, S30T, K42N, G68E, E70Q, S77G, S93R, F94Y, G100Q
Turning to B2, in assay [1], the “Neut IC50 (ug/ml) subtype B” value was determined as 6.25 µg/mL. Further, the “Neut IC50 (ug/ml) subtype A” value in assay [2] came to 9.48 µg/mL.

B3: ADI-15570 (antibody, V domains shown)
VH: QVQLVESGGGVVQPGKSLRLSCAASGFTFSSYPMHWVRQAPGAGLEWMAVISYDGANKYYEDSLKGRFTISRDNSKDTLFLQMNNLRPEDTAVYYCARGRTSHINTPETKWGQGTLVTVSS
VL: EIVLTQSPTLVSASTGDTVTISCRMSQGINGYLAWFQKKPGKAPDLLIYGASTLQDGVPSRFSGSGSGTDFTLTISRLQSEDLATYYCQQYYSLPWTFGQGTKVDIK
Take B3: the “Neut IC50 (ug/ml) subtype B” value in assay [1] was over 10 µg/mL. In assay [2], the “Neut IC50 (ug/ml) subtype A” value came to 13.3 µg/mL.

B4: ADI-15579 (antibody, V domains shown)
VH: EVQLVESGGGLVQPGRSLRLSCAAFGFTFDDYAMHWVRQAPGKGLEWVSGISWNSGFIGYADSVKGRFTISRDNAKNSLSLQMNSLRTEDTALYYCAKTDGAVAVDGPFDYWGQGTLVTVSS
VL: EIVLTQSPSSLSASVGDRVTITCRASQSISGYLSWYQQKPGKAPKLLIHSTSSLQSGVPSRFSGSGSGTDFTLTITSLQPEDFATYYCQQSYIAPPTFGQGTKVEIK
For the molecule B4, the “Neut IC50 (ug/ml) subtype B” value in assay [1] is over 10 µg/mL. Moreover, in assay [2], the “Neut IC50 (ug/ml) subtype A” value was 8.02 µg/mL.

B5: ADI-15562 (antibody, V domains shown)
VH: QVQLVQSGAEVKKPGDSLKISCKNAGHTSRIYWIAWVRQMPAKGLEYMGIIFPGDSDTRYSPSFRGQVTISADRSIRTAYLQLSSLKASDTGIYYCATQGLEGAFDYWGQGTLVTVSS
VL: DIRLTQSPSSLSASVGDRVTITCQASQDISNQLNWYQQKPGTAPKLLIYDASFLQTGVPSRFSGSGSGTHFTFTITSLQPEDFATYFCQHYDSFPIFTFGPGTKLEIK
In the case of B5, in assay [2], the “Neut IC50 (ug/ml) subtype A” value worked out at 0.01 µg/mL.

B6: ADI-15581 (antibody, V domains shown)
VH: QVQLVQSGAEVKKPGSSMKVSCQASGGPFSTYTISWVRQAPGQGLEWMGGIIPVFGTPNYAQKFHGRVTITADQSTSTAYMELSSLRSEDTAVYYCAGAPYPMDVWGQGTTVTVSS
VL: EIVLTQSPATLSLSPGERATLSCRASQSVASSLAWYQQKPGQAPRLLIYDASNRATGIPARFSGSGSGTDFTLTISSLEPEDFAVYYCQQRTNWQGLSFGGGTKVDIK
Take B6: the “Neut IC50 (ug/ml) subtype B” value in assay [1] came to 6.12 µg/mL. The “Neut IC50 (ug/ml) subtype A” value in assay [2] was 8.25 µg/mL.

B7: ADI-15589 (antibody, V domains shown)
VH: QVQLQQWGAGLLKPSETLSLTCAVYGGSFSGYYWGWIRQPPGKGLEWIGEVNHSGTSNYNPSLTSRVTISVDPSKKQLSLKLNSVTAADTAVYYCARAPWYTHAMDVWGQGTTVTVSS
VL: QSVLTQPASVSGSPGQSITISCTRTSSDVGAYSYVSWYQQHPGKAPKLMIYDVNNRPSGVSNRFSGSKSGNTASLTISGLQAEDEADYYCSSYTNSNTLGVFGGGTKLTVL
For B7, the “Neut IC50 (ug/ml) subtype B” value in assay [1] stood at 18.5 µg/mL. In assay [2], the “Neut IC50 (ug/ml) subtype A” value amounted to 0.876 µg/mL.

B8: ADI-15634 (antibody, V domains shown)
VH: QVQLVQSGAEVKKPGSSVKVSCKASGGTFSSYAISWVRQAPGQGLEWMGGIIPIFGTVNYAQKFQGRVTITADESTSTAYMELSSLRSEDTAVYYCARDRSVTPRYYGMDVWGQGTTVTVSS
VL: EIVMTQSPATLSLSPGERATLSCRASQSVSSYLAWYQQKPGQAPRLLIYDASNRATGIPARFSGSGSGTDFTLTISSLEPEDFAVYYCQHRSNWPPLTFGPGTKLEIK
With B8, the “Neut IC50 (ug/ml) subtype B” value in assay [1] was over 10 µg/mL. The “Neut IC50 (ug/ml) subtype A” value in assay [2] is over 10 µg/mL.

B9: ADI-15664 (antibody, V domains shown)
VH: EVQLVESGAEVKKPGSSVKVSCKASGGTFSSYAISWVRQAPGQGLEWMGGTIPIFGTINYAQKFQGRLTINADASTSTAYMELSSLRSEDTAVYFCARDRTTAVRYYAMDVWGQGTTVTVSS
VL: B8 VL with M4L, A51T, G57D, S92A, P101G, L105V
With B9, the “Neut IC50 (ug/ml) subtype B” value in assay [1] was over 10 µg/mL. The “Neut IC50 (ug/ml) subtype A” value in assay [2] was over 10 µg/mL.

B10: ADI-15613 (antibody, V domains shown)
VH: EVQLVESGAEVKKPGSSVKVSCKVSGGTFSTYGISWIQQAPGQGLEWVGGIIPMFGTANYAQRFQGRVTLTADEGTNTAYMELNNLRSEDTAMYYCARDRGNNGRYYAMDVWGQGTTVTVSS
VL: DIVLTQTPATLSLSPGERATLSCRASQSVTTYLAWYQQKPGQAPRLLIYDTSNRATGIPARFSGSGSGTDFTLTISSLEPEDFAVYYCQQRNNWPPTFGQGTRLEIK
For the molecule B10, in assay [1], the “Neut IC50 (ug/ml) subtype B” value turned out to be 3.04 µg/mL. For the same molecule, the “Neut IC50 (ug/ml) subtype A” value in assay [2] came out at 0.862 µg/mL.

B11: ADI-15630 (antibody, V domains shown)
VH: QVQLVQSGGGLVKPGGSLRLSCAASGFIFSDYYMVWIRQAPGKGLEWVSYISSSSRYINYADSVKGRFTISRDNAKNSLFLQMNTVRAEDTAVYYCAQGWYSDFWSGPIRIWGQGTLVTVSS
VL: DIQLTQSPSSLSASVGDRVTITCQASQDISNSLNWFQQKPGKAPKLLIFDAYNLETGVPSRFSGSGSGTDFTLTISSLQPEDIATYYCQQNDNLVLTFGGGTKLEIK
Take B11: the “Neut IC50 (ug/ml) subtype B” value in assay [1] amounted to 6.64 µg/mL. The “Neut IC50 (ug/ml) subtype A” value in assay [2] was over 10 µg/mL.

B12: ADI-15590 (antibody, V domains shown)
VH: EVQLLESGGLVVQPGGSLRLSCAASGFIFDDYTMHWVRQAPGKGLEWISLISWDSLDTYYAGSVQGRFTISRDNSRNSLYLRMNSLRPEDTALYYCAKTKYRGTYYYFDSWGQGTLVTVSS
VL: DIRVTQSPSSLSASVGDRVTITCQASQDISNYLNWYQQKPGKAPKLLIYDASNLETGVPSRFSGRGSGTDFTFTISSLQPEDIATYYCQQYDNLPPVTFGPGTKVEIK
Take B12: in assay [1], the “Neut IC50 (ug/ml) subtype B” value was over 10 µg/mL. Moreover, the “Neut IC50 (ug/ml) subtype A” value in assay [2] was over 10 µg/mL.

B13: ADI-15661 (antibody, V domains shown)
VH: EVQLVESGGGVVQPGRSLRLSCEASGFNFHNYDIQWVRQAPGKGLEWVALVLFDGSKKYYPHSVKGRFAISRDNSKKTLFLQMNSLRPEDTAVYYCARAPVTGASYYLDYWGQGTLVTVSS
VL: SYVLTQPPSVSVAPGQTARITCGANNIGNKGVHWYQQKPGQAPVLVVYDDDDQPSGIPERFSGSNSGNTATLTISRVEAGDEADYYCQVWDSTSDHLVFGGGTQLTVL
With B13, the “Neut IC50 (ug/ml) subtype B” value in assay [1] was over 10 µg/mL. Further, the “Neut IC50 (ug/ml) subtype A” value in assay [2] was determined as 0.021 µg/mL.

B14: ADI-15555 (antibody, V domains shown)
VH: EVQLVESGGALVKPGGSLRLSCVGTGLTFTTAYMSWARQAPGKGLEWVGRIKSKSDGGTTDYPTPVKGRFTISRDESKNTLYLQMNSLKIEDTAVYYCTTDRGITARPIFDSWGQGTLVTVSS
VL: QSVLTQPPSVSGALGRRVTISCTGSSSNIGAGYDVHWYRQLPGTAPKLLIYGNTKRPSGVPDRFSGSKYATSASLAITGLQAEDDADYYCQSYDGGLSGYVFGTGTKLTVL
As to B14, the “Neut IC50 (ug/ml) subtype B” value in assay [1] came out at 2.45 µg/mL. In addition, the “Neut IC50 (ug/ml) subtype A” value in assay [2] came out at 2.19 µg/mL.
